# Columns and labels:
# [1] = target: Histone H3.2 (human) (UniProt Q71DI3); experiment: in vivo azide-A-DSBSO XL-MS, HEK 293 cells
# [2] = target: Histone H4 (human) (UniProt P62805); experiment: in vivo azide-A-DSBSO XL-MS, HEK 293 cells
substance,measurement,setting,value
"Histone H2B (core histone, isoforms not told apart)",unique cross-linked peptides,[1],8 peptides
same,unique cross-linked peptides,[2],10 peptides

# — US20170082635A1
